The text below walks through data of US20180282407A1 (FUKUSHIMA MEDICAL UNIVERSITY, published 2018).

The target in assay [1] is human CD81 protein (human) (UniProt P60033). Kind of assay: cell-based or functional assay.
Assay [2] has the same target. Kind of assay: cell-based or functional assay. The source holds these as a separate data set.
For assay [3], the target named is T1, antigenic occludin peptide of SEQ ID NO: 7 (positions 214 to 230 of human occludin, second extracellular … (human, also: KLH carrier linked at N-terminus for immunisation, ELISA form not given here)).
T1 construct: also called the antigen; antigenic peptide
T1 peptide: ALCNQFYTPAATGLYVD
Kind of assay: ELISA of subclone culture supernatants on the antigen. Background: In an ELISA, binding on a coated surface is turned into a signal by an enzyme label.

The target of assay [4] is T2, Ocln3 (human).
T2 construct: also called Ocln3 peptide
T2 peptide: QFYTPAATG
Kind of assay: ELISA on coated peptide. From the text:
(§1) Accordingly, Ocln1 consisting of the amino acid sequence represented by SEQ ID NO: 6 ([…]) by the truncation of 7 residues from the […] side of the amino acid sequence represented by SEQ ID NO: 7, Ocln2 consisting of the amino acid sequence represented by SEQ ID NO: 11 ([…]) by the truncation of 7 residues from the 5′-terminal side thereof, and Ocln3 consisting of the amino acid sequence represented by SEQ ID NO: 12 ([…]) by the truncation of 3 to 4 residues from both terminal sides were prepared as antigenic peptides (FIG. 11A). KLH-Ocln peptide (1 μg/well) was used as a positive control antigen.
(§2) Each antigenic peptide was added at 25, 50, 100, and 500 μg/well to an antigen sensitization microplate (Nunc/Thermo Fisher Scientific Inc.) and incubated overnight at room temperature. After blocking with 5% BSA/PBS/0.09% NaN₃ at 37° C. for 2 hours, the 67-2 antibody or normal mouse IgG was added thereto and incubated at room temperature for 1 hour. Ocln1 has a cysteine residue in the sequence and is therefore capable of forming a dimer. Therefore, the analysis was also conducted under acidic conditions (2 N HCl). […] The absorbance at 450 nm/655 nm was measured using a microplate reader. […]

The target of assay [5] is T3, Ocln1 (human).
T3 construct: has a cysteine and can form a dimer, so the ELISA was also run under acidic conditions (2 N HCl); also called Ocln1 peptide
T3 peptide: ALCNQFYTPA
Kind of assay: ELISA on coated peptide, acidic conditions (2 N HCl), HRP anti-mouse IgG.
Source text: as §1, §2

Read-outs that look alike come from different tables or passages of the source. Ends that are not written are not given here.

Sequence of human CD81 protein (human) (P60033 whole entry): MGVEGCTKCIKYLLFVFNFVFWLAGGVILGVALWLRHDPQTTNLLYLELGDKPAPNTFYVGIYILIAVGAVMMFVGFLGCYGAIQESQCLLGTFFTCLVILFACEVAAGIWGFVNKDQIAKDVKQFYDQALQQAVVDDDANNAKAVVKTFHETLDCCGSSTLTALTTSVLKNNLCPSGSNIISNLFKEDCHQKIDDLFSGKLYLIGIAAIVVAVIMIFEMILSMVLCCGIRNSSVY

In assay [1], “anti-human CD81 antibody (JS-81 clone; BD Pharmingen)” returned an infection inhibition rate, HCVpv H77, Huh7.5.1 monolayer culture (luciferase) of 99.1% and an infection inhibition rate, HCVpv con1, Huh7.5.1 monolayer culture (luciferase) of 99.8%. Also, in assay [2], the infection inhibition rate, HCVpv 9-3, Huh7.5.1 monolayer culture (luciferase) amounted to 98% and the infection inhibition rate, HCVpv con1, Huh7.5.1 monolayer culture (luciferase) turned out to be 99%.

B1: mouse anti-human occludin monoclonal antibody clone 67-2 (antibody, IgG1, V domains shown)
VH: EVQLQQSGPELVKPGASVKISCKASGYTFTDYIMDWVKQSHGKSLEWIGYIYPNNGGTGYNQKFKSKATLTIDKSSSTAYMELHSLTSEDSAVYYCAREDGDYGYFDVWGAGTTVTVSS
VL: QAVVTQESALTTSPGGTVILTCRSSTGAVTTSNYANWVQEKPDHLFTGLIGGTSNRAPGVPVRFSGSLIGDKAALTITGAQTEDDAMYFCALWYSTHYVFGGGTKVTVLG
notes: Mouse antibody from hybridoma C67-2; also called 67-2 antibody; anti-occludin antibody 67-2
Regarding B1, the figures for the binding result in assay [3], in assay [4] and in assay [5] were “binds”, “no binding” and “binds”, respectively.
